± gives the standard deviation of the averaged measurements.
How the values were obtained:
[1] = test system: MCF7; test: percentage of EdU-negative (G0-arrested) nuclei per well, 72 h; higher = more G0 arrest; conditions: reference: sequence is the full UniProt precursor, the tested protein was the secreted form or ectodomain
[2] = test system: hTERT-HMEC; test: as above; conditions: reference: sequence is the full UniProt precursor, the tested protein was the secreted form or ectodomain
[3] = protein concentration 0.0225714 µM
[4] = protein concentration 0.225714 µM
[5] = protein concentration 0.0225 µM
[6] = protein concentration 0.0284475 µM
[7] = protein concentration 0.284475 µM
[8] = protein concentration 0.0125 µM
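Further: secreted proteins added to cultured cells, EdU pulse at the end, nuclei found by Hoechst imaging, EdU status from nuclear versus surrounding ring intensity ratio, PBS as neutral control.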

Q: How did the “percentage of EdU-negative” value [1, 3] turn out when “MPRLSLLLPLLLLLLLPLLPPLSPSLGIRDVGGRRPKCGPCRPEGCPAPAPCPAPGISALDECGCCARCLGAEGASCGGRAGGRCGPGLVCASQAAGAAPEGTGLCVCAQRGTVCGSDGRSYPSVCALRLRARHTPRAHPGHLHKARDGPCEFAPVVVVPPRSVHNVTGAQVGLSCEVRAVPTPVITWRKVTKSPEGTQALEELPGDHVNIAVQVRGGPSDHEATAWILINPLRKEDEGVYQCHAANMVGEAESHSTVTVLDLSKYRSFHFPAPDDRM [Q8WX77]” was run?
A: 27.4 ± 0.89%

Q: And the “percentage of EdU-negative” value [1, 4]?
A: 29.2 ± 0.86%

Q: And the “percentage of EdU-negative” value [2, 3]?
A: 4.78 ± 0.086%

Q: And the “percentage of EdU-negative” value [2, 4]?
A: 4.6 ± 1.4%

Q: With “MPRPAPARRLPGLLLLLWPLLLLPSAAPDPVARPGFRRLETRGPGGSPGRRPSPAAPDGAPASGTSEPGRARGAGVCKSRPLDLVFIIDSSRSVRPLEFTKVKTFVSRIIDTLDIGPADTRVAVVNYASTVKIEFQLQAYTDKQSLKQAVGRITPLSTGTMSGLAIQTAMDEAFTVEAGAREPSSNIPKVAIIVTDGRPQDQVNEVAARAQASGIELYAVGVDRADMASLKMMASEPLEEHVFYVETYGVIEKLSSRFQETFCALDPCVLGTHQCQHVCISDGEGKHHCECSQGYTLNADKKTCSALDRCALNTHGCEHICVNDRSGSYHCECYEGYTLNEDRKTCSAQDKCALGTHGCQHICVNDRTGSHHCECYEGYTLNADKKTCSVRDKCALGSHGCQHICVSDGAASYHCDCYPGYTLNEDKKTCSATEEARRLVSTEDACGCEATLAFQDKVSSYLQRLNTKLDDILEKLKINEYGQIHR” as the sequence, how does the “percentage of EdU-negative” value [1, 5] read?
A: 22.2 ± 2.4%

Q: What about the “percentage of EdU-negative” value ([1]; protein concentration 0.225 µM) of the same sequence?
A: 26.2 ± 2%

Q: What about the “percentage of EdU-negative” value [2, 5] of the same sequence?
A: 4.9 ± 0.095%

Q: And the “percentage of EdU-negative” value ([2]; protein concentration 0.225 µM)?
A: 5.61 ± 0.67%

Q: With “MPRQLSAAAALFASLAVILHDGSQMRAKAFPETRDYSQPTAAATVQDIKKPVQQPAKQAPHQTLAARFMDGHITFQTAATVKIPTTTPATTKNTATTSPITYTLVTTQATPNNSHTAPPVTEVTVGPSLAPYSLPPTITPPAHTTGTSSSTVSHTTGNTTQPSNQTTLPATLSIALHKSTTGQKPVQPTHAPGTTAAAHNTTRTAAPASTVPGPTLAPQPSSVKTGIYQVLNGSRLCIKAEMGIQLIVQDKESVFSPRRYFNIDPNATQASGNCGTRKSNLLLNFQGGFVNLTFTKDEESYYISEVGAYLTVSDPETIYQGIKHAVVMFQTAVGHSFKCVSEQSLQLSAHLQVKTTDVQLQAFDFEDDHFGNVDECSSDYTIVLPVIGAIVVGLCLMGMGVYKIRLRCQSSGYQRI [Q9UQV4]” as the sequence, how does the “percentage of EdU-negative” value [1, 6] read?
A: 25.5 ± 0.37%

Q: What about the “percentage of EdU-negative” value [1, 7] of the same sequence?
A: 26.2 ± 0.31%

Q: What about the “percentage of EdU-negative” value [2, 6] of the same sequence?
A: 5.03 ± 0.35%

Q: What about the “percentage of EdU-negative” value [2, 7] of the same sequence?
A: 5.04 ± 0.52%

Q: “MPRRGYSKPGSWGSFWAMLTLVGLVTHAAQRADVGGEAAGTSINHSQAVLQRLQELLRQGNASDVVLRVQAAGTDEVRVFHAHRLLLGLHSELFLELLSNQSEAVLQEPQDCAAVFDKFIRYLYCGELTVLLTQAIPLHRLATKYGVSSLQRGVADYMRAHLAGGAGPAVGWYHYAVGTGDEALRESCLQFLAWNLSAVAASTEWGAVSPELLWQLLQRSDLVLQDELELFHALEAWLGRARPPPAVAERALRAIRYPMIPPAQLFQLQARSAALARHGPAVADLLLQAYQFHAASPLHYAKFFDVNGSAFLPRNYLAPAWGAPWVINNPARDDRSTSFQTQLGPSGHDAGRRVTWNVLFSPRWLPVSLRPVYADAAGTALPAARPEDGRPRLVVTPASSGGDAAGVSFQKTVLVGARQQGRLLVRHAYSFHQSSEEAGDFLAHADLQRRNSEYLVENALHLHLIVKPVYHTLIRTPK [A6NE02]” was tested. Which “percentage of EdU-negative” value ([1]; protein concentration 0.006 µM) did it give?
A: 26.7 ± 0.63%

Q: What about the “percentage of EdU-negative” value ([1]; protein concentration 0.06 µM) of the same sequence?
A: 26.1 ± 1.3%

Q: And the “percentage of EdU-negative” value ([2]; protein concentration 0.006 µM)?
A: 5.11 ± 0.82%

Q: What about the “percentage of EdU-negative” value ([2]; protein concentration 0.06 µM) of the same sequence?
A: 10 ± 0.96%

Q: With “MPRRSLHAAAVLLLVILKEQPSSPAPVNGSKWTYFGPDGENSWSKKYPSCGGLLQSPIDLHSDILQYDASLTPLEFQGYNLSANKQFLLTNNGHSVKLNLPSDMHIQGLQSRYSATQLHLHWGNPNDPHGSEHTVSGQHFAAELHIVHYNSDLYPDASTASNKSEGLAVLAVLIEMGSFNPSYDKIFSHLQHVKYKGQEAFVPGFNIEELLPERTAEYYRYRGSLTTPPCNPTVLWTVFRNPVQISQEQLLALETALYCTHMDDPSPREMINNFRQVQKFDERLVYTSFSQVQVCTAAGLSLGIILSLALAGILGICIVVVVSIWLFRRKSIKKGDNKGVIYKPATKMETEAHA” as the sequence, how does the “percentage of EdU-negative” value [1, 5] read?
A: 26 ± 0.83%

Q: And the “percentage of EdU-negative” value ([1]; protein concentration 0.225 µM)?
A: 25.7 ± 0.64%

Q: And the “percentage of EdU-negative” value [2, 5]?
A: 5.44 ± 1.7%

Q: And the “percentage of EdU-negative” value ([2]; protein concentration 0.225 µM)?
A: 5.5 ± 1.2%

Q: “MPRSCCSRSGALLLALLLQASMEVRGWCLESSQCQDLTTESNLLECIRACKPDLSAETPMFPGNGDEQPLTENPRKYVMGHFRWDRFGRRNSSSSGSSGAGQKREDVSAGEDCGPLPEGGPEPRSDGAKPGPREGKRSYSMEHFRWGKPVGKKRRPVKVYPNGAEDESAEAFPLEFKRELTGQRLREGDGPDGPADDGAGAQADLEHSLLVAAEKKDEGPYRMEHFRWGSPPKDKRYGGFMTSEKSQTPLVTLFKNAIIKNAYKKGE” was tested. Which “percentage of EdU-negative” value [1, 8] did it give?
A: 24.3 ± 6.1%

Q: What about the “percentage of EdU-negative” value ([1]; protein concentration 0.125 µM) of the same sequence?
A: 24.787 ± 0.0019%

Q: And the “percentage of EdU-negative” value [2, 8]?
A: 4.65 ± 0.64%

Q: And the “percentage of EdU-negative” value ([2]; protein concentration 0.125 µM)?
A: 8.66 ± 0.81%

— the supplement of paper PMC11316812
